This passage reports Kd, stoichiometry N and lifetime of the dimer results from paper PMC5722895.

Common to all, as to details: remark: other sources report otherwise
Experiment [1] deals with T1, Trigger Factor (TF), full length, residues 1-432 (E. coli), P0A850.
T1 chain: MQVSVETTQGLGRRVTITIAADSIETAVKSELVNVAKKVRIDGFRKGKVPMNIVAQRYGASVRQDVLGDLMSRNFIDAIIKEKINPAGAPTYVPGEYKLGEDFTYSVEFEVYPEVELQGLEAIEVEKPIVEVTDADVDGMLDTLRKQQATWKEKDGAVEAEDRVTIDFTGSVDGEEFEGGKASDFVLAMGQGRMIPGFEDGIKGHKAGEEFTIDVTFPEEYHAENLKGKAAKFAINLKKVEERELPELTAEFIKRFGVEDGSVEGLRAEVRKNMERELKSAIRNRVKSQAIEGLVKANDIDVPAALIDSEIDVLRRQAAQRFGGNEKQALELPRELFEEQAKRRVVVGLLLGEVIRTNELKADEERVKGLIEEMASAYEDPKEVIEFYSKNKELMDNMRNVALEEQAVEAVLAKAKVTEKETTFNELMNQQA
Briefly: SEC-MALS; concentration series of full-length TF and full-length mutants alone, 26 °C, sample buffer (20 mM K-phosphate pH 6.5, 100 mM KCl, 0.5 mM EDTA); fit to a fast monomer-dimer equilibrium; dimer to monomers. In general terms: In gel filtration, larger molecules generally elute earlier.

Experiment [2] deals with T2, Trigger Factor (TF), full length, residues 1–432 (E. coli), P0A850.
T2 chain: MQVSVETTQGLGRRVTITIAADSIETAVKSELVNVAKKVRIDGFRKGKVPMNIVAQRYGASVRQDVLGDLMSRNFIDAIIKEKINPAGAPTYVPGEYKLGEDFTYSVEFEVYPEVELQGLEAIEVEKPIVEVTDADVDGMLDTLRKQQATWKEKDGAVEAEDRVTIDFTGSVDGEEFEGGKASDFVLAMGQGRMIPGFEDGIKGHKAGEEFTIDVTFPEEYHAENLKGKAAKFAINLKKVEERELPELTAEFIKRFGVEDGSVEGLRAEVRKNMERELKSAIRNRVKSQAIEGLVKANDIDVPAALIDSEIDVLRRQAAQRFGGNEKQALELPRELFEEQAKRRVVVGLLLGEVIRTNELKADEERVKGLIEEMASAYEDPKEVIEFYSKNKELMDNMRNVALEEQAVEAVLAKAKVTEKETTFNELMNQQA
Briefly: SEC-MALS; as a2 but 250 mM KCl; dimer to monomers.

Experiment [3] concerns the target T2, Trigger Factor (TF), full length, …. The experiment is described as follows: SEC-MALS; as a2 but 500 mM KCl; dimer to monomers.
For experiment [4] the target is unchanged. Briefly: SEC-MALS; sample buffer (20 mM K-phosphate pH 6.5, 100 mM KCl, 0.5 mM EDTA); 6 °C for the individual domains; concentration series fitted to a fast monomer–dimer equilibrium; dimer to monomers.
Experiment [5] shares this target. The experiment is described as follows: AUC; sedimentation equilibrium, 6 °C, 100 mM KCl (sample buffer: 20 mM K-phosphate pH 6.5, 100 mM KCl, 0.5 mM EDTA); 12 μM TF, 48 and 135 μM RBD–SBD; global fit to a monomer–dimer model; dimer to monomers.
Experiment [6] has the same target. Briefly: real-time NMR spin-label exchange (intermolecular PRE); 15 °C; 100 µM [U-2H,15N] TF mixed with 100 μM OXYL-1-NHS-labeled TF in sample buffer; decay of the 15N-filtered signal fitted to the lifetime of the dimer.
Experiment [7] has the same target. Briefly: real-time NMR spin-label exchange (intermolecular PRE); 35 °C; 100 µM [U-2H,15N] TF mixed with 100 μM OXYL-1-NHS-labeled TF in sample buffer; decay of the 15N-filtered signal fitted to the lifetime of the dimer.

B1: Trigger Factor (TF), full length, residues 1-432, P0A850 1-432 (natural protein)
chain: MQVSVETTQGLGRRVTITIAADSIETAVKSELVNVAKKVRIDGFRKGKVPMNIVAQRYGASVRQDVLGDLMSRNFIDAIIKEKINPAGAPTYVPGEYKLGEDFTYSVEFEVYPEVELQGLEAIEVEKPIVEVTDADVDGMLDTLRKQQATWKEKDGAVEAEDRVTIDFTGSVDGEEFEGGKASDFVLAMGQGRMIPGFEDGIKGHKAGEEFTIDVTFPEEYHAENLKGKAAKFAINLKKVEERELPELTAEFIKRFGVEDGSVEGLRAEVRKNMERELKSAIRNRVKSQAIEGLVKANDIDVPAALIDSEIDVLRRQAAQRFGGNEKQALELPRELFEEQAKRRVVVGLLLGEVIRTNELKADEERVKGLIEEMASAYEDPKEVIEFYSKNKELMDNMRNVALEEQAVEAVLAKAKVTEKETTFNELMNQQA
For the molecule B1, in experiment [1], the Kd (commonly the equilibrium constant for the complex coming apart) was 1.1 µM.

B2: Trigger Factor (TF), full length, residues 1–432, P0A850 1-432 (natural protein)
chain: MQVSVETTQGLGRRVTITIAADSIETAVKSELVNVAKKVRIDGFRKGKVPMNIVAQRYGASVRQDVLGDLMSRNFIDAIIKEKINPAGAPTYVPGEYKLGEDFTYSVEFEVYPEVELQGLEAIEVEKPIVEVTDADVDGMLDTLRKQQATWKEKDGAVEAEDRVTIDFTGSVDGEEFEGGKASDFVLAMGQGRMIPGFEDGIKGHKAGEEFTIDVTFPEEYHAENLKGKAAKFAINLKKVEERELPELTAEFIKRFGVEDGSVEGLRAEVRKNMERELKSAIRNRVKSQAIEGLVKANDIDVPAALIDSEIDVLRRQAAQRFGGNEKQALELPRELFEEQAKRRVVVGLLLGEVIRTNELKADEERVKGLIEEMASAYEDPKEVIEFYSKNKELMDNMRNVALEEQAVEAVLAKAKVTEKETTFNELMNQQA
As for B2, the Kd in experiment [2] turned out to be 9 µM; in experiment [3], 30 µM; in experiment [4], 1.7 µM; in experiment [5] it was 3.3 µM. Moreover, the stoichiometry N – broadly, a count of units in the complex or per binding partner – in experiment [4] is 2. Further, the figures for the lifetime of the dimer in experiment [6] and in experiment [7] were 15.8 min and 2.6 min, respectively.
